Blank lines part the entries; values can stand above or below the binder they belong to. Where no end group is shown, it is not given here. The star is where a group is joined. Biotin = O=C1N[C@H]2[C@H](CS[C@H]2CCCCC(=O)*)N1
Legend:
[1] = target: T1, Peptide 3-BSA (SSMEDYVNFN-C conjugated to BSA) (human); assay: ELISA; Ab 0.03125 ug/mL; repII
T1 peptide: SSMEDYVNFNC(BSA)
Procedure: (§1) In brief, plates with each non-conjugated peptide (50 μg/mL) or BSA-conjugated peptide (5 μg/mL) were coated in 0.58M carbonate-bicarbonate buffer pH9.5, 100 μL/well, at 4° C. […] After washing, wells were incubated with the 3, 3′,5,5′-Tetramethylbenzidine (TMB) HRP substrate and reactions were stopped with 2M HCl and OD450 was recorded.

[2] = target: T2, Peptide 4-BSA (SMEDYVNFNF-C conjugated to BSA) (human); assay: ELISA; Ab 0.03125 ug/mL; repII
T2 peptide: SMEDYVNFNFC(BSA)
Procedure: as §1

[3] = target: T3, Peptide 1, non-conjugated (MADDYGSEST-C) (human); assay: ELISA; Ab 0.03125 ug/mL; repII
T3 construct: With the extra C-terminal Cys
T3 peptide: MADDYGSESTC
Procedure: as §1

[4] = target: T4, Peptide 2, non-conjugated (GSESTSSMED-C) (human); assay: ELISA; Ab 0.03125 ug/mL; repII
T4 construct: With the extra C-terminal Cys
T4 peptide: GSESTSSMEDC
Procedure: as §1

[5] = target: T5, Peptide 3, non-conjugated (SSMEDYVNFN-C) (human); assay: ELISA; Ab 0.03125 ug/mL; repII
T5 construct: With the extra C-terminal Cys
T5 peptide: SSMEDYVNFNC
Procedure: as §1

[6] = target: T6, Peptide 4, non-conjugated (SMEDYVNFNF-C) (human); assay: ELISA; Ab 0.03125 ug/mL; repII
T6 construct: With the extra C-terminal Cys
T6 peptide: SMEDYVNFNFC
Procedure: as §1

[7] = target: T7, BSA (negative control coating) (bovine, UniProt P02769 25-607); assay: ELISA; Ab 0.03125 ug/mL; repII
T7 construct: also called Negative control BSA
T7 sequence (P02769 25-607 limits assumed): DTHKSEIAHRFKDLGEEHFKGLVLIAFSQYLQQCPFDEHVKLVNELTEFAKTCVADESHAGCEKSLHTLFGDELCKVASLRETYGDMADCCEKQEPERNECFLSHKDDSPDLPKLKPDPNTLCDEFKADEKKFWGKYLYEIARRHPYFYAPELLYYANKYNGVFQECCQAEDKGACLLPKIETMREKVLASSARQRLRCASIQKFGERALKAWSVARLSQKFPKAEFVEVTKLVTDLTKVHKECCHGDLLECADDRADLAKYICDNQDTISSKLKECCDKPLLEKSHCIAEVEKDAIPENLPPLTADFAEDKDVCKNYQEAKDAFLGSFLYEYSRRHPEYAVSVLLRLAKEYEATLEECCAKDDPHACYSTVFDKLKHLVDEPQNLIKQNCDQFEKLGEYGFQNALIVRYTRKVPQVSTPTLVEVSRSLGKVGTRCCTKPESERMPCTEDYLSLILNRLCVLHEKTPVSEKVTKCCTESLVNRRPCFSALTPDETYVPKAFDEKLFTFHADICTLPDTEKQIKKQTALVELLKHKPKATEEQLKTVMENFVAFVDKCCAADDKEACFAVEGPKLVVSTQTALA
Procedure: as §1

[8] = target: T8, antigen peptide-BSA (immunisation peptide #1 MADDYGSESTSSMEDYVNFNF-C conjugated to BSA) (human, extra C-terminal Cys conjugated to BSA); assay: ELISA; Ab 0.03125 ug/mL; repII
T8 construct: also called Positive control antigen peptide-BSA; MADDY peptide
T8 peptide: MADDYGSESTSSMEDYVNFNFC
Procedure: as §1

[9] = target: T9, Peptide 1-BSA (MADDYGSEST-C conjugated to BSA) (human); assay: ELISA; Ab 0.03125 ug/mL; repII
T9 peptide: MADDYGSESTC(BSA)
Procedure: as §1

[10] = target: T10, Peptide 2-BSA (GSESTSSMED-C conjugated to BSA) (human); assay: ELISA; Ab 0.03125 ug/mL; repII
T10 peptide: GSESTSSMEDC(BSA)
Procedure: as §1

[11] = target: T11, biotin-peptide MTPTDFTSPI (human, also: prints MTPTDFTSP, without I10); assay: ELISA, biotin-peptide
T11 peptide: Biotin-MTPTDFTSPI

[12] = target: T12, biotin-peptide TDFTSPIPNM (human); assay: ELISA, biotin-peptide
T12 peptide: Biotin-TDFTSPIPNM

[13] = target: T13, biotin-peptide TSPIPNMADD (human); assay: ELISA, biotin-peptide
T13 peptide: Biotin-TSPIPNMADD

[14] = target: T14, biotin-peptide IPNMADDYGS (human); assay: ELISA, biotin-peptide
T14 peptide: Biotin-IPNMADDYGS

[15] = target: T15, biotin-peptide MADDYGSEST (human); assay: ELISA, biotin-peptide
T15 peptide: Biotin-MADDYGSEST

[16] = target: T16, biotin-peptide DYGSESTSSM (human); assay: ELISA, biotin-peptide
T16 peptide: Biotin-DYGSESTSSM

[17] = target: T17, biotin-peptide SESTSSMEDY (human); assay: ELISA, biotin-peptide
T17 peptide: Biotin-SESTSSMEDY

[18] = target: T18, biotin-peptide TSSMEDYVNF (human); assay: ELISA, biotin-peptide
T18 peptide: Biotin-TSSMEDYVNF

[19] = target: T19, biotin-peptide SSMEDYVNFN (human); assay: ELISA, biotin-peptide
T19 peptide: Biotin-SSMEDYVNFN

[20] = target: T20, biotin-peptide SMEDYVNFNF (human); assay: ELISA, biotin-peptide
T20 peptide: Biotin-SMEDYVNFNF

[21] = target: T21, biotin-peptide MEDYVNFNFT (human); assay: ELISA, biotin-peptide
T21 peptide: Biotin-MEDYVNFNFT

[22] = target: T22, biotin-peptide YVNFNFTDFY (human); assay: ELISA, biotin-peptide
T22 peptide: Biotin-YVNFNFTDFY

[23] = target: T23, biotin-peptide FNFTDFYCEK (human); assay: ELISA, biotin-peptide
T23 peptide: Biotin-FNFTDFYCEK

[24] = target: T24, biotin-peptide TDFYCEKNNV (human); assay: ELISA, biotin-peptide
T24 peptide: Biotin-TDFYCEKNNV

[25] = target: T25, biotin-peptide YCEKNNVRQF (human); assay: ELISA, biotin-peptide
T25 peptide: Biotin-YCEKNNVRQF

biotin-peptide KNNVRQFAS = target: T26, biotin-peptide KNNVRQFAS (human); assay: ELISA, biotin-peptide
T26 peptide: Biotin-KNNVRQFAS

[26] = target: T18, biotin-peptide TSSMEDYVNF; assay: ELISA biotin-peptide; scFv 0.15625 ug/mL; repI
Procedure: (§2) The peptides were synthesized naked or with a N-terminal Biotin modification with a purity of >98%. All four scFvs were verified by ELISA that can be detected with anti-His antibodies. ELISA was performed for scFv-peptide binding validation. Briefly, naked peptides were coated (50 μg/mL) in 0.58M carbonate-bicarbonate buffer pH9.5, 100 μL/well, 4° C. O/N. Then after blocking (3% BSA-PBS, 300 μL/well 37° C. 1.5 h) and washing (PBS+Tween-20 0.05% v/v (0.05% PBST), wells were incubated with each purified scFv antibody at concentration of 1 μg/mL in PBS at 37° C. 1 h. After washing (0.05% PBST), wells were incubated with secondary antibodies (goat anti-His IgG-HRP) in PBS, 37° C., 30 min. After washing, and incubation with TMB substrate, reactions were stopped with 2M HCl and reading was quantified at OD450.
(§3) ELISA with biotin-conjugated peptides (5 μg/mL) was performed very similar to described above with minor modifications.
(§4) A full curve ELISA was performed for each positive scFv/biotin-peptide pair in order to confirm previous results. Tables 15-17 show ELISA results of the dose-dependent full curve for each positive peptide with scFv “CCR9_HUM”, “Comp-2” and “Comp-3”, respectively.

[27] = target: T19, biotin-peptide SSMEDYVNFN; assay: ELISA biotin-peptide; scFv 0.15625 ug/mL; repI
Procedure: as §2, §3, §4

[28] = target: T20, biotin-peptide SMEDYVNFNF; assay: ELISA biotin-peptide; scFv 0.15625 ug/mL; repI
Procedure: as §2, §3, §4

OD450 [1]: 1.57 OD | OD450 [2]: 1.53 OD | OD450 [3]: 0.01 OD | OD450 [4]: 0.01 OD | OD450 [5]: 1.62 OD | OD450 [6]: 0.76 OD | OD450 [7]: 0.01 OD | OD450 [8]: 1.48 OD | OD450 [9]: 0.01 OD | OD450 [10]: 0.01 OD
B1: anti-CCR9 antibody clone 115 (murine, from hybridoma #115) (antibody, V domains shown)
VH: QVQLKQSGPELVKPGTSVRVSCTASGYSFTDYIIYWVKQSHGRSLEWIGYIDPNNYNTRYSQKFKGKATLTVDKSSTSAFMHLNSLTSDDSAVYYCARDVYWGQGTTLTVSS
VL: DVVMTQTPLSLTVSLGDQASISCRSSQSLVHSNGKTYLQWYLQKPGQSPKLLIYKVSNRFSGVPDRFSGSGSGTDFTLKISRVEAEDLGVYFCAQSTHVWTFGGGTKLEIKR
notes: Mouse IgG1

binding result [11]: no binding (tested: 10 ug/mL) | binding result [12]: no binding (tested: 10 ug/mL) | binding result [13]: no binding (tested: 10 ug/mL) | binding result [14]: no binding (tested: 10 ug/mL) | binding result [15]: no binding (tested: 10 ug/mL) | binding result [16]: no binding (tested: 10 ug/mL) | binding result [17]: no binding (tested: 10 ug/mL) | binding result [18]: no binding (tested: 10 ug/mL) | binding result [19]: no binding (tested: 10 ug/mL) | binding result [20]: no binding (tested: 10 ug/mL) | binding result [21]: no binding (tested: 10 ug/mL) | binding result [22]: no binding (tested: 10 ug/mL) | binding result [23]: no binding (tested: 10 ug/mL) | binding result [24]: no binding (tested: 10 ug/mL) | binding result [25]: no binding (tested: 10 ug/mL) | binding result (biotin-peptide KNNVRQFAS): no binding (tested: 10 ug/mL)
B2: Comparative antibody 1 (Comp-1) scFv, SEQ ID NO: 10 from WO2023/037125 A1, His-tagged (scFv)
scFv: QVQLKESGPGLVQPSQTLSLTCTVSGFSVASYDMHWVRLPPGKGLEWMGIIWANGNTHYNSGLKSRLSISRDTSKSQVFLKMNSLQTEDTAIYFCTRGGFAYWGQGTLVTVSSGGGGSGGGGSGGGGSGGGGSDVVMTQTPVSLSVSLGGQVSISCRSSQSLVHNNGNTYLSWYLQKPGQSPQLLIYKVSNRFSGVSDRFSGSGSGTDFTLKISRVEPDDLGVYYCGQGTQYPTFGGGTKLELKHHHHHH

OD450 [26]: 0.22 OD | OD450 [27]: 1.64 OD | OD450 [28]: 1.63 OD
B3: CCR9_HUM2 scFv (humanized anti-CCR9 scFv, SEQ ID NO: 17 with C-terminal 6xHis tag) (scFv)
scFv: QVQLVQSGAEVKKPGASVKVSCTASGYSFTDYIIYWVKQAHGQSLEWMGYIDPNNYNTRYSQKFQGKVTITVDKSSTSAYMELNSLTSDDTAVYYCARDVYWGQGTTVTVSSGGGGSGGGGSGGGGSGGGGSDVVMTQTPLSLSVTPGQPASISCRSSQSLVHSNGKTYLQWYLQKPGQSPKLLIYKVSNRFSGVPDRFSGSGSGTDFTLKISRVEAEDVGVYFCAQSTHVWTFGGGTKVEIKRAHHHHHH

Source: patent US20260232732A1 (FUNDACI INSTITUT DE RECERCA CONTRA LA LEUC MIA JOSEP …, published 2026)
